# Test results taken from patent WO2018007923A2 (dated 2018).
# Columns and labels:
# pH4.0-treated TTR [1] = target: T1, pH4.0-treated TTR (human, UniProt P02766 21-147); experiment: ELISA, pH4-TTR captured by anti-His
# pH4.0-treated TTR [2] = target: T1, pH4.0-treated TTR; experiment: summary of Table 4; ELISA on pH4-TTR
# [3] = target: TTR-V122I (fibrils and oligomeric aggregates) (UniProt P02766 21-147); experiment: cell-based or functional assay
# pH4.0-treated TTR [4] = target: T2, pH4.0-treated TTR (human, UniProt P02766 21-147); experiment: ELISA, pH4-TTR captured by anti-His; remark: listed apart in the source
# pH4.0-treated TTR [5] = target: T2, pH4.0-treated TTR; experiment: summary of Table 4; ELISA on pH4-TTR; remark: listed apart in the source
binder,measurement,setting,value
"mouse monoclonal antibody 6C1 (antibody, V domains shown, also called m6C1; mis-TTR mAb 6C1) VH: EVQLVESGGGLVQPGGSLKLSCAASGFTFSNYYMSWVRQTPEKRLEWVAYISIDGNNIYHPDSVKGRFTISRDNAKNTLYLQMSSLKSEDTAMYYCARDSDYGYFDVWGTGTTVTVSS VL: DVLMTQTPLSLPVSLGDQASISCRSSQSIVHSNGNTYLEWYLQKRGQSPKLLIYKVSKRFSGVPDRFSGSGSGTDFILKISRVEAEDLGVYYCFQGSHVPLTFGGGTKLELK",Kd,pH4.0-treated TTR [1],16 nM
same,Kd,pH4.0-treated TTR [2],14.5 nM
"mouse monoclonal antibody 14G8 (antibody, V domains shown) VH: EVKLVESGGGLVQPGGSLKLSCAASGFTFSSYTMSWVRQTPEKRLELVAEINNSGDTTYYPDTVKGRFTISRDNAKNTLYLQMSSLKSEDTAMYYCARHYYYGGGYGGWFFDVWGTGTTVTVSS VL: DIVMTQAAPSVPVTPGESVSISCRSNKSLLHSNGNTYLYWFLQRPGQSPQLLIYRVSNLASGVPDRFSGSGSGTAFTLRISRVEAEDVGVYYCMQHLEYPLTFGAGTKLELKR",IC50 of inhibition of TTR-V122I fibrillation (ThT fluorescence),[3],28 µg/mL
"mouse monoclonal antibody 9D5 (antibody, V domains shown) VH: EVKLVESGGGLVQPGGSLKLSCAASGFTFSSYTMSWVRQTPEKRLELVAEISNSGDTTYYPDTVKGRFTFSRDNAKNTLYLQMSSLKSEDTAMYYCARHYYYGGGYGGWFFDVWGTGTTVTVSS VL: DIVMTQAAPSVPVTPGESVSISCRSSKSLLHSNGNTYLYWFLQRPGQSPQLLIYRVSNLASGVPDRFSGSGSGTAFTLRISRVEAEDVGVYYCMQHLEYPLTFGAGTKLELK",Kd,pH4.0-treated TTR [4],282 nM
same,Kd,pH4.0-treated TTR [5],257 nM
